In PMC5241105 (Science (New York, N.Y.), 2016):

Target: thermolysin cleaved Ebola virus GP (GPTHL) (Ebola virus (EBOV), UniProt Q05320)
Assay: BLI

Binder	binding result	Kd [nM]
Fab100 (antigen-binding fragment of mAb100) (Fab, V domains shown) VH: QVQLQESGPGLVKPSDTLSLTCTVSGGSLSSFYWSWIRQPPGKGLEWIGYIYYSGSPNYSPSLESRVTMSVDTTRNQISLKLDSVTAADTAVYYCVRASRSYYWGSYRPTAFDSWGQGTLVTVSS VL: YELTQPLSVSVSPGQTAIFTCSGDNLGDKYVCWFQQRPGQSPMLLIYQDNKRPSGIPERFSGSNSGNTATLTISGTQSTDEADYYCQTWDSTVVFGGGTKLTVL	binds	
Fab114 (antigen-binding fragment of mAb114) (Fab, V domains shown) VH: EVQLVESGGGLIQPGGSLRLSCAASGFALRMYDMHWVRQTIDKRLEWVSAVGPSGDTYYADSVKGRFAVSRENAKNSLSLQMNSLTAGDTAIYYCVRSDRGVAGLFDSWGQGILVTVSS VL: DIQMTQSPSSLSASVGDRITITCRASQAFDNYVAWYQQRPGKVPKLLISAASALHAGVPSRFSGSGSGTHFTLTISSLQPEDVATYYCQNYNSAPLTFGGGTKVEIK		8
